Data as given in patent US5444151A, “Platelet derived growth factor antagonists” (Ludwig Institute for Cancer Research, priority 1992, dated 1995).

Test system: human foreskin fibroblasts
Assay: Ligand stimulated [3H]thymidine incorporation
Assay type: cell-based
Description: The possible role of peptide 16T as an antagonist for PDGF activity in vivo was investigated. Following the methodology of Betsholtz et al., J. Cell Physiol 118: 203-210 (1984), the disclosure of which is incorporated by reference, [^3 H] thymidine incorporation by human fibroblasts in the presence of various peptides was studied.

B1: PDGF-BB: platelet derived growth factor B chain homodimer (protein, UniProt P01127 82-190, looked up)
Platelet-derived growth …: SLGSLTIAEPAMIAECKTRTEVFEISRRLIDRTNANFLVWPPCVEVQRCSGCCNNRNVQCRPTQVQLRPVQVRKIEIVRKKPIFKKATVTLEDHLACKCETVAAARPVT
B1 was tested, and the “[3H]thymidine incorporation, ligand alone” value (no peptide (unstimulated control 483 cpm), mean of duplicates) was 1918 cpm and the “Stimulation of [3H]thymidine incorporation by ligand” value (no peptide, versus unstimulated control) was 4 fold.
